Assays:
casein = assay: FP filter; details: specificity control; 100 nM DNA, 20 uM casein
complement factor D (fD) [1] = target: complement factor D (fD) (UniProt P00746); assay: flow; details: 2'-F G, 2'-OMe A, C, U, apparent Kd of pool, SB1T, 37 C
complement factor D (fD) [2] = target: complement factor D (fD) (UniProt P00746); assay: FP filter; details: 100 nM DNA, 5 uM fD
complement factor D (fD) [3] = target: complement factor D (fD) (UniProt P00746); assay: inhibition; details: non-specific control oligo

Sequence of complement factor D (fD) (P00746 26-253): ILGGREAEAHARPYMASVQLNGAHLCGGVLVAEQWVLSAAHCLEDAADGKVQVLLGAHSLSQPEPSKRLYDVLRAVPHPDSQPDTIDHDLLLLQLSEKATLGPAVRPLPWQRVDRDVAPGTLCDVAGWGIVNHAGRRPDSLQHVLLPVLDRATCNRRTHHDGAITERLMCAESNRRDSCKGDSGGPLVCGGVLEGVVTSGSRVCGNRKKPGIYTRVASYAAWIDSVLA

Substance | binding signal (casein) [% bound] | further results
GTGACGACTGACATATCTGCAAAAGTTAGATTGACATGGTATGCACCGTCTGAGGTTGGTCGTAGTTGAGTCTGAGTGCT [Aptamer 12 (rank 9)] | 0.6 | 
GTGACGACTGACATATCTGCGTTTGGGGTTGGGGCCTGGGAGTTTGGGGAGCAGAAAGGACGTAGTTGAGTCTGAGTGCT [Aptamer 5 (rank 2)] | 0.5 | 
GTGACGACTGACATATCTGCTGCTTCCAGCGGTCATGATATGCACTGTCTGAAGCTCGGTCGTAGTTGAGTCTGAGTGCT [Aptamer 15 (rank 12)] | 0.2 | 
GTGACGACTGACATATCTGCTCCGAGGTTATTGGGGTTGGGGCCTGGGCGATTGGGGCCTCGTAGTTGAGTCTGAGTGCT [Aptamer 4 (rank 1)] | 0.5 | 
GTGACGACTGACATATCTGCCCTATAGGGGTGTGGGCGAGGGGTGGGTGGTAGGGCGGCTCGTAGTTGAGTCTGAGTGCT [Aptamer 10 (rank 7)] | 0.2 | 
GGGAGUGUGUACGAGGCAUUAGGCCGCCNNNNNNNNNNNNNNNNNNNNNNNNNNNNNNGGCGGCUUUGAUACUUGAUCGCCCUAGAAGC [N30S selection round 8 pool] |  | Kd (complement factor D (fD) [1]; competed by anti-fD Fab AFD): 8.8 nM
GTGACGACTGACATATCTGCTATTTTGGGGCCTGGGTGTTGGGGATTGGGGACTATGTGTCGTAGTTGAGTCTGAGTGCT [Aptamer 8 (rank 5)] | 0.3 | 
GGGAGUGUGUACGAGGCAUUAGGCCGCCNNNNNNNNNNNNNNNNNNNNNNNNNNNNNNGGCGGCUUUGAUACUUGAUCGCCCUAGAAGC [N30S selection round 7 pool] |  | Kd (complement factor D (fD) [1]; competed by anti-fD Fab AFD): 45.1 nM
GTGACGACTGACATATCTGCGGCGGTTGGGGTCGAAGGGCGAGGGGTGGGAGGTCGCCGTAGTTGAGTCTGAGTGCT [Aptamer 7 (rank 4)] | 0.1 | 
GTGACGACTGACATATCTGCGGGCGTCTGAGCGCATGGATGACCCACCGACAGATTGCGGCGTAGTTGAGTCTGAGTGCT [Aptamer 27 (rank 24)] | 0.6 | 
GGGAGUGUGUACGAGGCAUUAGGCCGCCNNNNNNNNNNNNNNNNNNNNNNNNNNNNNNGGCGGCUUUGAUACUUGAUCGCCCUAGAAGC [N30S selection round 6 pool] |  | Kd (complement factor D (fD) [1]): 34.4 nM
GTGACGACTGACATATCTGCNNNNNNNNNNNNNNNNNNNNNNNNNNNNNNNNNNNNNNNNCGTAGTTGAGTCTGAGTGCT [DNA selection round 9 pool] |  | binding signal (complement factor D (fD) [2]; round 9 pool): 14.6 % bound
GTGACGACTGACATATCTGCNNNNNNNNNNNNNNNNNNNNNNNNNNNNNNNNNNNNNNNNCGTAGTTGAGTCTGAGTGCT [naive N40 DNA library] | 0.5 | binding signal (complement factor D (fD) [2]; naive library background): 3.6 % bound; binding signal (complement factor D (fD) [2]; round 0 library): 0.88 % bound
C8 non-specific control oligo |  | IC50 (complement factor D (fD) [3]; alternative-pathway hemolysis): > 160 nM; activity (complement factor D (fD) [3]; fD esterase assay): 105 % activity

From patent publication US20180051287
